Measurements as given in article PMC9490039 (iScience, 2022).

Target: Kv7.2 wt (wild-type Kv7.2 channel subunit), tagged with EGFP or with mKate2 (human, UniProt O43526-1 1-872)
Assay: FRET or BRET

B1: Kv7.2mut-EGFP (Kv7.2 with in-frame deletion of histidine 260) (natural protein)
chain: MVQKSRNGGVYPGPSGEKKLKVGFVGLDPGAPDSTRDGALLIAGSEAPKRGSILSKPRAGGAGAGKPPKRNAFYRKLQNFLYNVLERPRGWAFIYHAYVFLLVFSCLVLSVFSTIKEYEKSSEGALYILEIVTIVVFGVEYFVRIWAAGCCCRYRGWRGRLKFARKPFCVIDIMVLIASIAVLAAGSQGNVFATSALRSLRFLQILRMIRMDRRGGTWKLLGSVVYAHSKELVTAWYIGFLCLILASFLVYLAEKGENDFDTYADALWWGLITLTTIGYGDKYPQTWNGRLLAATFTLIGVSFFALPAGILGSGFALKVQEQHRQKHFEKRRNPAAGLIQSAWRFYATNLSRTDLHSTWQYYERTVTVPMYSSQTQTYGASRLIPPLNQLELLRNLKSKSGLAFRKDPPPEPSPSKGSPCRGPLCGCCPGRSSQKVSLKDRVFSSPRGVAAKGKGSPQAQTVRRSPSADQSLEDSPSKVPKSWSFGDRSRARQAFRIKGAASRQNSEEASLPGEDIVDDKSCPCEFVTEDLTPGLKVSIRAVCVMRFLVSKRKFKESLRPYDVMDVIEQYSAGHLDMLSRIKSLQSRVDQIVGRGPAITDKDRTKGPAEAELPEDPSMMGRLGKVEKQVLSMEKKLDFLVNIYMQRMGIPPTETEAYFGAKEPEPAPPYHSPEDSREHVDRHGCIVKIVRSSSSTGQKNFSAPPAAPPVQCPPSTSWQPQSHPRQGHGTSPVGDHGSLVRIPPPPAHERSLSAYGGGNRASMEFLRQEDTPGCRPPEGNLRDSDTSISIPSVDHEELERSFSGFSISQSKENLDALNSCYAAVAPCAKVRPYIAEGESDTDSDLCTPCGPPPRSATGEGPFGDVGWAGPRK
increase of EGFP intensity after photobleaching mKate2 (FRET): 12.1%
